The experiment has as its target Recombinant human TLR4/myeloid differentiation factor 2 (MD-2) complex (human) (UniProt O00206).

Sequence of Recombinant human TLR4/myeloid differentiation factor 2 (MD-2) complex (human) (O00206 24-631, chain 1 of 2): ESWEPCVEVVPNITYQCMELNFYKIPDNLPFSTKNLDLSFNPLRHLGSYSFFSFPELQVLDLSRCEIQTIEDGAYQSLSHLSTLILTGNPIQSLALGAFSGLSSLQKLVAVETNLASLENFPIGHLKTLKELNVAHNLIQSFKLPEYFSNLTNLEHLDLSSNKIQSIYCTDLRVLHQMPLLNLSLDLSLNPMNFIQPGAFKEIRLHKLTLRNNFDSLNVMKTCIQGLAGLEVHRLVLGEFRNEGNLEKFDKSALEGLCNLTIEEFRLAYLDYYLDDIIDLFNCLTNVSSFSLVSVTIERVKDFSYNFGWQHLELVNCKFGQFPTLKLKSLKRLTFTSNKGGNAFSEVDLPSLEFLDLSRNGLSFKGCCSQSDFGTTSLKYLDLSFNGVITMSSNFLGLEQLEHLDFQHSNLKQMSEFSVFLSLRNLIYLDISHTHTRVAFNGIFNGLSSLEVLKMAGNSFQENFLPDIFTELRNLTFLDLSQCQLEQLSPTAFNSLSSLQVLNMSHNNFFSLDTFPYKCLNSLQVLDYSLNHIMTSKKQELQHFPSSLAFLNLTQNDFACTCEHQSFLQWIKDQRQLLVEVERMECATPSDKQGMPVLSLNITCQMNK
Sequence of Recombinant human TLR4/myeloid differentiation factor 2 (MD-2) complex (human) (Q9Y6Y9 19-160, chain 2 of 2, further chain): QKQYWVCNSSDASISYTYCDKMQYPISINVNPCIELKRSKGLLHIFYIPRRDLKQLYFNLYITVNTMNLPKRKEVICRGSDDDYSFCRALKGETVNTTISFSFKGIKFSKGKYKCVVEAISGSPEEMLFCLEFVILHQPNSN

B1: Recombinant human calcium binding protein S100A9 (natural protein)
chain: MTCKMSQLERNIETIINTFHQYSVKLGHPDTLNQGEFKELVRKDLQNFLKKENKNEKVIEHIMEDLDTNADKQLSFEEFIMLMARLTWASHEKMHEGDEGPGHHHKPGLGEGTP
For the molecule B1, the EC50 of TLR4 activation in HEK-Blue hTLR4 reporter cells (SEAP production), S100A9 0.5-50 nM, 24 h worked out at 0.7 nM.
